In this assay the target is human CD40 (hCD40) expressed on cells (human) (UniProt P25942). Description: cell-based or functional assay.
human CD40 (hCD40) expressed on cells (human), sequence (P25942 21-277): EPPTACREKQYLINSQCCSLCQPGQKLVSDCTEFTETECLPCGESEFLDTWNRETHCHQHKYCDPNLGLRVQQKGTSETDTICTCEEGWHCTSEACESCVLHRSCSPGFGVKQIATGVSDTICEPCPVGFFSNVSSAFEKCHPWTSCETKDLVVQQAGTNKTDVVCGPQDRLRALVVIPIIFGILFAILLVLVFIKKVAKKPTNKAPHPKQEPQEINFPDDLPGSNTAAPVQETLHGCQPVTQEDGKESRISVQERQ

Turning to “human CD40L (soluble, used in the cell assays) (from UniProt P29965 113-261) (ligand)”, the EC50 of activation, Raji/NFkB-luc was determined as 0.691 nM; the EC50 of activation, Ramos.2G6.4C10/NFkB-luc was 0.436 nM; the EC50 of activation, THP-1/NFkB-luc amounted to 1.47 nM.
